Consider eight molecules from patent US20250313644A1 (FUTUREGEN BIOPHARMACEUTICAL BEIJING, published 2025).

Numbering of substitutions follows the chain as printed.

Test [1] concerns the target T1, human TL1A (HuTL1A) (human, UniProt O95150 57-251, limits assumed, biotin-labelled in some assays (site not stated)).
T1 construct: Expressed in EXPI-293 cells and purified by Ni-NTA (His-tag); Described as a trimeric antigen; also called TL1A antigen; WT
T1 sequence: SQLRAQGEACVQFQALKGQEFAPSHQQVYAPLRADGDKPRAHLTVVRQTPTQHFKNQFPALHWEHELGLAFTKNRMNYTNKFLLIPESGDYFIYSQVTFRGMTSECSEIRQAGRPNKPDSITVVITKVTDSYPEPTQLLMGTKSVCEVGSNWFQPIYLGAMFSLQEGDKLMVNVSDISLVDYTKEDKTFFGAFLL
In words: DLS, antigen and antibody mixed in equal moles. As to the method: 60 μM antigen and antibody was mixed in equal moles, incubated at room temperature for 30 minutes, and then the molecular size was detected using UNCLE or SEC.

The target in test [2] is T1, human TL1A (HuTL1A). In words: ELISA: biotin-HuTL1A on streptavidin plate, antibody diluted at pH 6.0, HRP-anti-human Fc, OD450. As to the method: (§1) Corresponding antibodies were added to specific wells, and the antibodies were diluted with sodium dihydrogen phosphate-citrate buffer at pH 7.4, pH 6.0, pH 5.8, or pH 5.6. Binding assay was carried out at room temperature for 30 minutes. After the incubation, the excess antibodies were removed and the wells were washed by PBST. HRP-anti-Human Fc (Sino Biological) was then added into each well and incubated for 30 minutes to detect the bound antibody. The substrate TMB was finally added to develop color for 5-10 minutes. The color development reaction was terminated with 1M sulfuric acid. OD450 nm was recorded on a microplate reader, and the data were processed and fitted by 4 parameter logistic regression.
(In an ELISA, binding on a coated surface is turned into a signal by an enzyme label.)

Test [3] deals with T1, human TL1A (HuTL1A). Put plainly: ELISA: biotin-HuTL1A on streptavidin plate, antibody diluted at pH 7.4, HRP-anti-human Fc, OD450. On the procedure:
as §1

The target of test [4] is T1, human TL1A (HuTL1A). The description is as above. As to the method:
as §1
This is another data set of the same source.

Test [5] has as its target T2, cynomolgus monkey/rhesus monkey TL1A (cynomolgus monkey/rhesus monkey).
T2 construct: also called Cynomolgus/rhesus monkey TL1A
In words: BLI (Gator), His-tagged TL1A on anti-His probe, pH 7.4. On the procedure: (§2) Then a serial dilutions of single-arm M701 antibodies and control antibodies were added.

Test [6] has as its target T1, human TL1A (HuTL1A). The description is as above. On the procedure: as §2
In test [7] the target is T1, human TL1A (HuTL1A). In words: BLI (Gator), biotin-HuTL1A on SA probe, pH 7.4; BLI (Gator), pH 7.4. As to the method:
The binding kinetics between monoclonal antibodies and antigens was measured using Gator, a label-free biomolecule interaction analyzer based on the principle of biolayer interference (BLI). […] Then a serial dilutions of single-arm M701 antibodies and control antibodies were added. The antibodies interacted with the antigen captured by the SA probe, and the interaction was analyzed by detecting the signal change of the reflection interference spectrum of the probe surface, and finally the binding kinetics constants of the antibodies were calculated. The kinetic constants of antigen and antibodies were measured at pH 7.4 and 5.6 in sodium dihydrogen phosphate-citrate buffer.

In test [8] the target is T1, human TL1A (HuTL1A). Put plainly: cell-based or functional assay.

B1: M701-3912 (antibody, human IgG1, kappa, L234A L235A, V domains shown)
VH: ELQLQESGPGLVKPSETLSLTCAVSGISFNDFHWAWIRQPPGKGLEWIGDINHRGHTSYNPSLKSRVTVSVDTSKNQFSLKLSSVTAADTAVYYCARDYPNFTFDLWGQGTLVTVSS
VL: DIQMTQSPATLSLSPGERATLSCRASQSVSTYLAWYQQKPGQAPRLLIYGASRRATGIPARFSGSGSGTDFTLTISSLQSEDFAVYYCQQYGDTPLTFGQGTKVEIKR
notes: Fc-engineered IgG1
With B1, the “Ave Z-dia (nm) of the antigen-antibody complex” value (“Ave Z-dia (nm)” for short) in the test with human TL1A (HuTL1A) [1] came out at 18.5 nm.

B2: single-arm antibody 4035 (antibody, human IgG1, kappa, L234A L235A)
heavy: ELQLQESGPGLVKPSETLSLTCAVSGISFNDFHWAWIRQPPGKGLEWIGDINHRGHTSYNPSLKSRVTVSVDTSKNQFSLKLSSVTAADTAVYYCARDYPNFTFDLWGQGTLVTVSSASTKGPSVFPLAPSSKSTSGGTAALGCLVKDYFPEPVTVSWNSGALTSGVHTFPAVLQSSGLYSLSSVVTVPSSSLGTQTYICNVNHKPSNTKVDKKVEPKSCDKTHTCPPCPAPEAAGGPSVFLFPPKPKDTLMISRTPEVTCVVVDVSHEDPEVKFNWYVDGVEVHNAKTKPREEQYNSTYRVVSVLTVLHQDWLNGKEYKCKVSNKALGAPIEKTISKAKGQPREPQVYTLPPCREEMTKNQVSLWCLVKGFYPSDIAVEWESNGQPENNYKTTPPVLDSDGSFFLYSKLTVDKSRWQQGNVFSCSVMHEALHNHYTQKSLSLSPG
light: not shown
chain: DKTHTCPPCPAPEAAGGPSVFLFPPKPKDTLMISRTPEVTCVVVDVSHEDPEVKFNWYVDGVEVHNAKTKPREEQYNSTYRVVSVLTVLHQDWLNGKEYKCKVSNKALGAPIEKTISKAKGQPREPQVCTLPPSREEMTKNQVSLSCAVKGFYPSDIAVEWESNGQPENNYKTTPPVLDSDGSFFLVSKLTVDKSRWQQGNVFSCSVMHEALHNHYTQKSLSLSPG
notes: Single-arm form of 3912; also called M701-4035
Broadly, the EC50 (read off the curve) is the concentration at which the effect is half-maximal. For the molecule B2, the figures for the “EC50 (read off the curve)” value in the test with human TL1A (HuTL1A) [2], in the test with human TL1A (HuTL1A) [3] and with human TL1A (HuTL1A) [4] were around 1 nM, around 0.3 nM and around 0.3 nM, respectively.

B3: single-arm antibody M701-3952 (antibody, human IgG1, kappa, L234A L235A)
heavy: B2 heavy with I27V, N30S, F32Y, S58N, V71I, Y94F, Y99F, T103I, L106Y
light: not shown
chain: B2 chain
As usually defined, the Kd is the equilibrium constant for the complex coming apart. The koff is the rate constant with which the complex falls apart. As usually defined, the kon is the rate constant with which the complex forms. On to B3, for which the Kd in test [5] was 5.75 nM; with human TL1A (HuTL1A) [6], 5.68 nM; with human TL1A (HuTL1A) [7] it was 5.25 nM. In addition, the figures for the off-rate constant (koff) (in test [5]; with human TL1A (HuTL1A) [6]; with human TL1A (HuTL1A) [7]) were 0.0036 s⁻¹, 0.00346 s⁻¹ and 0.00306 s⁻¹, respectively. For the same molecule, the kon in test [5] amounted to 626000 M⁻¹ s⁻¹; with human TL1A (HuTL1A) [6], 610000 M⁻¹ s⁻¹; in the test with human TL1A (HuTL1A) [7], 582000 M⁻¹ s⁻¹. Besides, the “EC50 (read off the curve)” value with human TL1A (HuTL1A) [3] and with human TL1A (HuTL1A) [4] was around 0.5 nM throughout.

B4: single-arm antibody 3672 (antibody, human IgG1, kappa, L234A L235A)
heavy: ELQLQESGPGLVKPSETLSLTCAVSGLSFTDFYWAWIRQPPGKGLEWIGEINHKGNTSYNPSLKSRVTVSIDTSKNQFSLKLSSVTAADTAVYFCARDFPNYTFDFWGQGTLVTVSSASTKGPSVFPLAPSSKSTSGGTAALGCLVKDYFPEPVTVSWNSGALTSGVHTFPAVLQSSGLYSLSSVVTVPSSSLGTQTYICNVNHKPSNTKVDKKVEPKSCDKTHTCPPCPAPEAAGGPSVFLFPPKPKDTLMISRTPEVTCVVVDVSHEDPEVKFNWYVDGVEVHNAKTKPREEQYNSTYRVVSVLTVLHQDWLNGKEYKCKVSNKALGAPIEKTISKAKGQPREPQVYTLPPCREEMTKNQVSLWCLVKGFYPSDIAVEWESNGQPENNYKTTPPVLDSDGSFFLYSKLTVDKSRWQQGNVFSCSVMHEALHNHYTQKSLSLSPG
light: not shown
chain: B2 chain
notes: also called M701-3672
Turning to B4, the “EC50 (read off the curve)” value with human TL1A (HuTL1A) [3] and with human TL1A (HuTL1A) [4] was around 3 nM in each case.

B5: single-arm antibody 3900 (antibody, human IgG1, kappa, L234A L235A)
heavy: EVQLQESGPGLVKPSETLSLTCAVSGVSYSDYHWAWIRQPPGKGLEWIGDINHKGKTNYNPSLKSRVTISVDTSKNQFSLKLSSVTAADTAVYYCARDYPNFLFDYWGQGTLVTVSSASTKGPSVFPLAPSSKSTSGGTAALGCLVKDYFPEPVTVSWNSGALTSGVHTFPAVLQSSGLYSLSSVVTVPSSSLGTQTYICNVNHKPSNTKVDKKVEPKSCDKTHTCPPCPAPEAAGGPSVFLFPPKPKDTLMISRTPEVTCVVVDVSHEDPEVKFNWYVDGVEVHNAKTKPREEQYNSTYRVVSVLTVLHQDWLNGKEYKCKVSNKALGAPIEKTISKAKGQPREPQVYTLPPCREEMTKNQVSLWCLVKGFYPSDIAVEWESNGQPENNYKTTPPVLDSDGSFFLYSKLTVDKSRWQQGNVFSCSVMHEALHNHYTQKSLSLSPG
light: not shown
chain: B2 chain
notes: also called M701-3900
As for B5, the “EC50 (read off the curve)” value is around 0.9 nM with human TL1A (HuTL1A) [2], around 0.5 nM in the test with human TL1A (HuTL1A) [3] and around 0.5 nM with human TL1A (HuTL1A) [4].

B6: single-arm antibody M701-3990 (antibody, human IgG1, kappa, L234A L235A)
heavy: B2 heavy with I27V, N30T, F32Y, S58N, V71I, T103I, F104Y, L106Y
light: not shown
chain: B2 chain
notes: Single-arm form of 4019
Take B6: the Kd in test [5] turned out to be 4.51 nM; with human TL1A (HuTL1A) [6] it was 4.89 nM; with human TL1A (HuTL1A) [7] it was 4.26 nM. For the same molecule, the koff amounted to 0.00208 s⁻¹ in test [5], 0.00214 s⁻¹ with human TL1A (HuTL1A) [6] and 0.00168 s⁻¹ in the test with human TL1A (HuTL1A) [7]. Moreover, the kon in test [5] stood at 462000 M⁻¹ s⁻¹; in the test with human TL1A (HuTL1A) [6] it was 438000 M⁻¹ s⁻¹; with human TL1A (HuTL1A) [7], 394000 M⁻¹ s⁻¹. The “EC50 (read off the curve)” value with human TL1A (HuTL1A) [2] is around 1 nM; in the test with human TL1A (HuTL1A) [3] it was around 0.4 nM; with human TL1A (HuTL1A) [4], around 0.4 nM.

B7: M701-3756 (antibody, human IgG1, kappa, L234A L235A, V domains shown)
VH: ELQLQESGPGLVKPSETLSLTCAVSGLSFTDFYWAWIRQPPGKGLEWIGEINHKGNTSYNPSLKSRVTVSIDTSKNQFSLKLSSVTAADTAVYFCARDFPNYTFDFWGQGTLVTVSS
VL: DIQLTQSPGTLSLSPGERATLSCRASQSVSNHLAWYQQKPGQAPRLLIYGASKRATGIPDRFSGSGSGTDFTLTISRLEPEDFAVYYCQQYADAPLTFGQGTKVEIKR
notes: Fc-engineered IgG1; from the original phage library
With B7, the “Ave Z-dia (nm)” value in the test with human TL1A (HuTL1A) [1] stood at 19.1 nm. Besides, in the test with human TL1A (HuTL1A) [8], the “IC50 (read off the curve); SEAP reporter in HEK293T/DR3-NFκB cells with soluble TL1A, OD655” value was around 1 nM.

B8: M701-3876 (antibody, human IgG1, kappa, L234A L235A, V domains shown)
VH: EVQLQESGPGLVKPSETLSLTCAVSGVSYSDYHWAWIRQPPGKGLEWIGDINHKGKTNYNPSLKSRVTISVDTSKNQFSLKLSSVTAADTAVYYCARDYPNFLFDYWGQGTLVTVSS
VL: B7 VL with D1A, L4M, N31S, K53R, D60A, A94S
notes: Fc-engineered IgG1
In the case of B8, the “Ave Z-dia (nm)” value with human TL1A (HuTL1A) [1] was 18.7 nm. For the same molecule, the “IC50 (read off the curve); SEAP reporter in HEK293T/DR3-NFκB cells with soluble TL1A, OD655” value in the test with human TL1A (HuTL1A) [8] was around 1 nM.
